To fix the notation:
T1: TNFR2 CRD4 peptide (peptide 5; aa 146-174 of mature TNFR2) (human)
T1 construct: Range counted on mature TNFR2; also called peptide five; bin 5
T1 peptide: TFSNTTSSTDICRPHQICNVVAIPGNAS

T2: TNFR-Fc (UniProt P20333 23-257, limits assumed)
T2 construct: Printed only as TNFR-Fc; not shown: Fc part
T2 sequence (looked up): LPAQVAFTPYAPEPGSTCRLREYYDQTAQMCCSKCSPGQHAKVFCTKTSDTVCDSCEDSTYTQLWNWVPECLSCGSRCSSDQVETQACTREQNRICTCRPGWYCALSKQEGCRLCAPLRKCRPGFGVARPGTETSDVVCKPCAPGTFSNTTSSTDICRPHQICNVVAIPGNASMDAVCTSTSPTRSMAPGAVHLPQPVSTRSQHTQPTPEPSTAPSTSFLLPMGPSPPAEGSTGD

T3: cynomolgus TNFR2-His tagged protein (cynomolgus, UniProt A0A2K5VET2 132-366)
T3 construct: also called Cyno TNFR2; cynomolgus TNFR2 protein; not shown: His tag
T3 sequence: T2 sequence (looked up) with S16G, S36P, P117Q, N164H, E210A, S216G, M223V

T4: soluble mouse TNFR2 (mouse, UniProt P25119 23-258, limits assumed)
T4 sequence (looked up): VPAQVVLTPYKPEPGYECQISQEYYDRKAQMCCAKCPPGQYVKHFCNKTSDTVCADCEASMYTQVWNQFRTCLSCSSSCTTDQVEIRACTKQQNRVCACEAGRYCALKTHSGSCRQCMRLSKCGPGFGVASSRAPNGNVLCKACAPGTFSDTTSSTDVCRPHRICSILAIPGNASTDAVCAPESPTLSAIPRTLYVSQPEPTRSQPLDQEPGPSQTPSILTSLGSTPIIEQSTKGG

T5: human TNFR2 expressed on cells (human, UniProt P20333 23-461)
T5 construct: whole, on cells; also called hTNFR2 (cell); CHO-TNFR2
T5 sequence (looked up): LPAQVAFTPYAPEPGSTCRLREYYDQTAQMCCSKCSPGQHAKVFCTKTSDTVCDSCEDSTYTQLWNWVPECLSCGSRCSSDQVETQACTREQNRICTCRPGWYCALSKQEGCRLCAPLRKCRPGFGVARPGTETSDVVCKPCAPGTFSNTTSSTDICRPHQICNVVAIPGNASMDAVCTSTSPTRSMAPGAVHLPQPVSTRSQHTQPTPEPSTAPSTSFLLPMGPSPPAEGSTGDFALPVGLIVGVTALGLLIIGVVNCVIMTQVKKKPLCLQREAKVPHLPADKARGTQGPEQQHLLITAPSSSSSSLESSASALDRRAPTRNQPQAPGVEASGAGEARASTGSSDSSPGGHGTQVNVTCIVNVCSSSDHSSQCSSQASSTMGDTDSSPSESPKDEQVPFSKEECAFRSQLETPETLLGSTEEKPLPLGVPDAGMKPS

T6: human TNFR2-His tagged protein (soluble) (human, UniProt P20333 23-257)
T6 construct: also called hTNFR2 (soluble); soluble TNFR2-His; not shown: His tag
T6 sequence (looked up): T2 sequence (looked up)

B1: chimeric antibody clone 25-31 (rab600_25_31) (antibody, V domains shown)
VH: QEQLKESGGGLVTPGTPLTLTCTASGFSLSSYDMSWVRQAPGKGLEWIGYIWSSGSAYYATWAEGRFTISKTSTTVGLKITSPTTEDTATYFCARRYVGSSYDTWGQGTLVTVSS
VL: AVLTQTPSPVSAAVGGTVTISCQSSQSVSNNNYLSWYQQKPGQPPKLLIYAASYLASGVPPRFSGSGSGTQFTLTISGVQCDDAATYYCLGDYDNDIDHAFGGGTEVVVK
B2: chimeric antibody clone 24-124 (rab600_24_124) (antibody, V domains shown)
VH: QEQLVESGGGLVTLGGSLKLSCKASGIDFSSYGISWVRQAPGKGLEWIAYIYPDYGSTDYATWVNGRFTISLDNAQNTVFLQMTSLTAADTATYFCASGYASSSGYYDPKYFGLWGPGTLVTVSS
VL: IKMTQTPASVSAAVGGTVTINCRASEDIESYLAWYQQKPGQPPKLLIYDASDLASGVPSRVKGSGSGTEFTLTISGVRCDDAATYYCQHGFYTSRSDSVFGGGTEVVVK
B3: chimeric antibody clone 25-103 (rab600_25_103) (antibody, V domains shown)
VH: QEQLKESGGGLVTPGTPLTLTCTVSGIDLSSYAMGWVRQAPGKGLEYIGFIDTGGSTYYANWAKGRFTISRTSTTVDLKIASPTTEDAATYFCANVGARMYLWGPGTLVTVSS
VL: DVVMTQTPASVEAAVGGTVTINCQASQSISNLLAWYQQKPGQPPKLLIYRASTLESGVPSRFKGSGSGTEFTLTISDLECADAATYYCQCSYYGGSYIGAFGGGTEVVVK
B4: humanized antibody h600_24_2 (antibody, V domains shown)
VH: EVQLVESGGGLVQPGGSLRLSCAASGFSFSVSYWICWVRQAPGKGLEWVACTDGGDGSSYYASWVNGRFTISRDNSKNTLYLQMNSLRAEDTAVYYCARDRSDVFNLWGQGTLVTVSS
VL: DIQMTQSPSSLSASVGDRVTITCQAGQSIDSNLAWYQQKPGKAPKLLIYRASTLASGVPSRFSGSGSGTDFTLTISSLQPEDFATYYCQSFYVTISAMVDYPFGGGTKVEIK
B5: humanized antibody h600_HB_28B7.3 (antibody, V domains shown)
VH: EVQLVESGGGLVQPGGSLRLSCAASGFSLNSHYMIWVRQAPGKGLEWVGIITSSDYIYYARWAKGRFTISRDNSKNTLYLQMNSLRAEDTAVYYCARYNYDDDGELFNLWGQGTLVTVSS
VL: DIQMTQSPSSLSASVGDRVTITCQSSQSIDANNDLAWYQQKPGKAPKLLIYLASKLASGVPSRFSGSGSGTDFTLTISSLQPEDFATYYCLGGYDDDADNTFGGGTKVEIK
notes: also called h600_23_28B7
B6: humanized antibody h600_25_9 (antibody, V domains shown)
VH: EVQLVESGGGLVQPGGSLRLSCAASGFSLSTYDINWVRQAPGKGLEWVGIIYTGGITNFANWAKGRFTISRDNSKNTLYLQMNSLRAEDTAVYYCARGGYDSEGYVYPDAFDPWGQGTLVTVSS
VL: DIQMTQSPSSLSASVGDRVTITCQASESISNLLAWYQQKPGKAPKLLIYRASILTSGVPSRFSGSGSGTDFTLTISSLQPEDFATYYCQHGYTGTNVQNVFGGGTKVEIK
B7: humanized antibody h600_24_124 (antibody, V domains shown)
VH: EVQLVESGGGLVQPGGSLRLSCAASGIDFSSYGISWVRQAPGKGLEWVAYIYPDYGSTDYATWVNGRFTISLDNSKNTLYLQMNSLRAEDTAVYYCASGYASSSGYYDPKYFGLWGQGTLVTVSS
VL: DIQMTQSPSSLSASVGDRVTITCRASEDIESYLAWYQQKPGKAPKLLIYDASDLASGVPSRFSGSGSGTDFTLTISSLQPEDFATYYCQHGFYTSRSDSVFGGGTKVEIK
B8: humanized antibody h600_HB_55F6.6 (antibody, V domains shown)
VH: EVQLVESGGGLVQPGGSLRLSCAASGFSFTNNYYMCWVRQAPGKGLEWVGCIYPSIVGPTYYANWAKGRFTISRDNSKNTLYLQMNSLRAEDTAVYYCVRDRYDDYGDYFNLWGQGTLVTVSS
VL: DIQMTQSPSSLSASVGDRVTITCQASQSIYNYLSWYQQKPGKAPKRLIYYASTLASGVPSRFSGSGSGTDFTLTISSLQPEDFATYYCQSNSGVNGNRYGNAFGGGTKVEIK
notes: also called 55F6.1

For orientation: IC50 means the point on the concentration scale where inhibition reaches its midpoint. Low readings indicate higher potency, high ones lower potency. As a reminder, the EC50 is the concentration giving half of the maximal effect. The low end stands for an effect from little substance, the high end for a need for much substance. As a reminder, the Kd is the free concentration of one partner at which half of the binding sites on the other are occupied at equilibrium, for simple one-to-one binding. High values mean a looser complex, low ones a tighter complex.

Positions count from the first letter of the chain named.

The first assay addresses T1, TNFR2 CRD4 peptide (peptide 5; aa …). Description: peptide-binding ELISA (potential peptide bin). A general note: ELISA stands for enzyme-linked immunosorbent assay.
Turning to B1, the binding result is listed as “binds”.

In the case of B2, the binding result is listed as “binds”.

As for B3, the binding result is given as “binds”.

In the next assay the target is T2, TNFR-Fc. The assay is described as follows: TNF-α blocking ELISA (soluble).
B4 returned a half-inhibitory concentration (IC50) of 3520 pM. This lies in the single-digit nanomolar range.

As for B5, the IC50 turned out to be 2460 pM.

In turn, B6 registered a half-inhibitory concentration (IC50) of 465 pM.

The molecule B7 displayed an IC50 of 2300 pM.

B8 registered an IC50 of 3810 pM.

Another assay deals with T3, cynomolgus TNFR2-His tagged protein. Description: ELISA, cynomolgus TNFR2.
In turn, B4 displayed a 50% effective concentration (EC50) of 131 pM.

B5 yielded an EC50 of 211 pM.

Molecule B6 registered an EC50 of 46 pM.

B7 came in with a half-maximal effective concentration (EC50) of 58 pM.

B8 showed an EC50 of 109 pM. This EC50 lies about 1.9-fold higher than the previous one.

The target of the next assay is T4, soluble mouse TNFR2. Description: binding screen on soluble mouse TNFR2 (mouse cross-reactivity).
In the case of B1, the binding result is recorded as “no binding”.

In the case of B2, the binding result is recorded as “no binding”.

Turning to B3, the binding result was “binds”.

Another assay addresses T5, human TNFR2 expressed on cells. The assay is described as follows: cell binding on TNFR2-overexpressing (OE) cells.
Turning to B4, the affinity, expressed as Kd, was 245 pM.

With B5, the affinity, expressed as Kd, was 130 pM. This Kd is about 1.9-fold lower than that of the molecule before.

For the molecule B6, the dissociation constant (Kd) was 387 pM.

On to B7, for which binding was characterised by a dissociation constant (Kd) of 291 pM. The Kd values of the last two molecules are within 1.5-fold of each other.

As for B8, binding was put at a Kd of 539 pM.

Another assay concerns the target T2, TNFR-Fc. Description: TNF-α blocking ELISA on coated TNFR-Fc. As for the experimental part:
In FIGS. 3A-3B, human (3A) or cynomolgus (3B) TNFR2-His tagged protein was coated on 96-well ELISA plates at 1 μg/mL and incubated overnight at 4° C. Plates were washed and blocked using 1% BSA. Antibodies were added for 1 hour at room temperature (RT), washed, and detected using anti-Human HRP. Assay was developed using TMB substrate for 3-5 minutes. In FIG. 3C, FACS binding was performed on CHO cells that were engineered to express human TNFR2. Briefly, antibodies were incubated with 200,000 cells in MACS buffer for 1 hour followed by wash and detection using anti-human IgG BV421 for 20 minutes. Samples were analyzed using Cytoflex or MACSQuant flow cytometers. In FIG. 3D, ligand blocking ELISA was performed by coating plates with 1 ug/mL TNFR-Fc overnight at 4° C. Plates were washed, blocked and antibodies were incubated for 1 hr at RT. […] Assay was developed using TMB substrate for 5-7 minutes.
B1 registered an IC50 of 4130 pM. This counts as single-digit nanomolar.

Turning to B2, 2540 pM corresponded to half-maximal inhibition (IC50).

Another assay has as its target T6, human TNFR2-His tagged protein (soluble). The assay is described as follows: ELISA on coated human TNFR2-His. The method in brief:
(§1)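 TNFR2-His ELISAs: human or cynomolgus protein coated at 1 μg/mL overnight at 4 °C, BSA-blocked, antibodies 1 h RT, anti-human HRP, TMB 3–5 min. Flow: 200,000 human TNFR2-CHO cells, antibody 1 h, anti-human IgG BV421 20 min. Blocking ELISA: TNFR-Fc coated 1 ug/mL, antibodies 1 h RT, TMB 5–7 min.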
For the molecule B1, the half-maximal effective concentration (EC50) amounted to 70.4 pM.

Take B2: the EC50 came out at 137 pM.

Regarding B3, the response was half-maximal at 44.3 pM (EC50). Compared with the last molecule, the EC50 is about 3.1-fold lower.

Another assay concerns the target T5, human TNFR2 expressed on cells. The assay is described as follows: flow cytometry on CHO cells expressing human TNFR2. The method in brief:
as §1
A general note: In flow cytometry, cells or beads pass a laser one at a time.
The molecule B1 came in with a 50% effective concentration (EC50) of 3140 pM.

The molecule B2 showed an EC50 of 179 pM.

For the molecule B3, the response was half-maximal at 946 pM (EC50).

The next assay deals with T3, cynomolgus TNFR2-His tagged protein. Description: ELISA on coated cynomolgus TNFR2-His. In outline:
as §1
B1: the midpoint of the response, the EC50, lay at 38 pM.

With B2, the EC50 was 88.2 pM.

The molecule B3 registered an EC50 of 0.348 pM.

The target of a further assay is T5, human TNFR2 expressed on cells. The assay is described as follows: blocking of biotinylated TNF-α on TNFR2-CHO cells, flow cytometry. On the procedure: TNFR2-overexpressing CHO cells were plated at 100,000 cells per well. Cells were incubated with the indicated antibodies for 30 minutes on ice. […] Cells were analyzed using Cytoflex or MACSQuant flow cytometer. Assay was repeated twice.
B4: it took 447 pM to reach half-maximal inhibition (IC50).

On to B5, for which the IC50 amounted to 379 pM.

On to B6, for which the concentration for half-maximal inhibition (IC50) was determined as 7020 pM.

B7: the 50% inhibitory concentration (IC50) was determined as 567 pM.

With B8, the midpoint of inhibition, the IC50, lay at 566 pM. The IC50 values of the last two molecules are within 1.5-fold of each other.

For a further assay, the target named is T6, human TNFR2-His tagged protein (soluble). The assay is described as follows: ELISA, soluble human TNFR2.
The molecule B4 displayed an EC50 of 149 pM. That is a sub-nanomolar value.

B5 returned an EC50 of 240 pM.

As to B6, the response was half-maximal at 51 pM (EC50).

In turn, B7 showed an EC50 of 98 pM.

Molecule B8 gave an EC50 of 131 pM. This EC50 and that of the molecule before are within 1.5-fold of each other.

A further assay has as its target T5, human TNFR2 expressed on cells. The assay is described as follows: flow cytometry, cell-expressed human TNFR2.
In turn, B4 came in with an EC50 of 377 pM.

B5 registered an EC50 of 280 pM.

The molecule B6 returned an EC50 of 587 pM.

B7 gave a half-maximal effective concentration (EC50) of 408 pM.

For the molecule B8, the EC50 stood at 672 pM.

The record behind these values is US20220372154A1 (APEXIGEN, published 2022).
